{
  "source": "paper PMC12421828",
  "target": "FLAG-14-3-3ε (pCAGG-FLAG 14-3-3ε of Figure 5, isoform not told)",
  "assay": "co-immunoprecipitation (anti-FLAG IP), immunoblot band quantification",
  "details": "BSR cells co-transfected; immunoprecipitation at 24 h post-transfection; parent: est. 0.76; read off a plot",
  "data": [
    {"substance": "HA2B* expressed from pCAGG-HA2B* S19E", "values": [
      {"measurement": "response (Elution / Input)", "value": 0.76}
    ]},
    {"substance": "HA2B* expressed from pCAGG-HA2B* S19D", "values": [
      {"measurement": "response (Elution / Input)", "value": 1.9}
    ]},
    {"substance": "HA2B* expressed from pCAGG-HA2B* S17A", "values": [
      {"measurement": "response (Elution / Input)", "value": 1.5}
    ]},
    {"substance": "HA2B* expressed from pCAGG-HA2B* S17E", "values": [
      {"measurement": "response (Elution / Input)", "value": 1.7}
    ]},
    {"substance": "HA2B* expressed from pCAGG-HA2B* S17D", "values": [
      {"measurement": "response (Elution / Input)", "value": 1.4}
    ]},
    {"substance": "HA2B* expressed from pCAGG-HA2B* S19A", "values": [
      {"measurement": "response (Elution / Input)", "value": 1.1}
    ]}
  ]
}
